According to IntAct's records for PubMed 27309808:

B1: Izumo sperm-egg fusion protein 1 (Homo sapiens), Q8IYV9-1 (parent)
chain: MGPHFTLLCAALAGCLLPAEGCVICDPSVVLALKSLEKDYLPGHLDAKHHKAMMERVENAVKDFQELSLNEDAYMGVVDEATLQKGSWSLLKDLKRITDSDVKGDLFVKELFWMLHLQKETFATYVARFQKEAYCPNKCGVMLQTLIWCKNCKKEVHACRKSYDCGERNVEVPQMEDMILDCELNWHQASEGLTDYSFYRVWGNNTETLVSKGKEATLTKPMVGPEDAGSYRCELGSVNSSPATIINFHVTVLPKMIKEEKPSPNIVTPGEATTESSISLQPLQPEKMLASRLLGLLICGSLALITGLTFAIFRRRKVIDFIKSSLFGLGSGAAEQTQVPKEKATDSRQQ
B2: Sperm-egg fusion protein Juno (Homo sapiens), A6ND01-1 (parent)
chain: MACWWPLLLELWTVMPTWAGDELLNICMNAKHHKRVPSPEDKLYEECIPWKDNACCTLTTSWEAHLDVSPLYNFSLFHCGLLMPGCRKHFIQAICFYECSPNLGPWIQPVGSLGWEVAPSGQGERVVNVPLCQEDCEEWWEDCRMSYTCKSNWRGGWDWSQGKNRCPKGAQCLPFSHYFPTPADLCEKTWSNSFKASPERRNSGRCLQKWFEPAQGNPNVAVARLFASSAPSWELSYTIMVCSLFLPFLS

Variants of: B1
Settings: with IZUMO1R

effect of a mutation on the interaction | Variant
decreasing interaction strength | W148A

Variants of: B2
Settings: with IZUMO1, Q8IYV9-1

effect of a mutation on the interaction | Variant
decreasing interaction strength | M83A
decreasing interaction strength | L81A
decreasing interaction strength | W62A
